This note sets out measurements from patent publication US20120315277A1, “Compositions and Methods for the Therapy and Diagnosis of Influenza” (priority 2011, published 2012).

Assay [1] concerns H5N1 (VN1203/04). Also on record: key to Liver: viral antigens: +++: many; ++: moderate; +: few; ±: rare; −: negative; key to Liver: pathological changes / Lung: pathological changes / Brain: pathological changes: +++: severe; ++: moderate; +: mild; ±: scant; −: not observed. Particulars: mouse, in vivo.
Assay [2] has as its system H5N1 (VN1203/04). The arrangement: key: +++: severe; ++: moderate; +: mild; ±: scant; −: not observed. Particulars: mouse, in vivo.
Assay [3] concerns H5N1 (VN1203/04). Also on record: key: +++: many; ++: moderate; +: few; ±: rare; −: negative. Particulars: mouse, in vivo.
The subject of assay [4] is H5N1 (A/Vietnam/1203/04, VN1203). Also on record: species or system mouse (balb/c). Particulars: mouse, in vivo.
For assay [5], the system named is H1N1 (A/Solomon Islands/06). The assay can be described thus: H1N1 challenge IV at 10LD50 (Example 16). The format is in vivo, mouse (balb/c). Particulars: 10MLD50; antibody on days 3 and 5.
The test system of assay [6] is H5N1 (VN1203/04). Particulars: mouse, in vivo.
Another assay relates to H1N1 (A/NWS/33). The experiment in a line: H1N1 challenge V at 2 or 4 LD50 (Example 17). As to conditions: antibody 20 mg/kg, oseltamivir 10 mg/kg bid. The format is in vivo, mouse (balb/c).
For assay [7], the system named is H5N1 (A/Vietnam/1203/04, VN1203). The arrangement: species or system mouse (balb/c). As to conditions: mouse, in vivo. This is another data set of the same source.
The test system is the same in assay [8]. The arrangement: species or system mouse (balb/c). Particulars: mouse, in vivo. The source holds these as a separate data set.
A further assay relates to H1N1 (A/PR/8/34). The experiment in a line: H1N1 challenge VI at 5LD50 (Example 18). The class given is in vivo, mouse (balb/c). Particulars: 5MLD50; antibody 20 mg/kg days 1, 3, 5; oseltamivir 10 mg/kg four hours post-infection.
For assay [9], the system named is H5N1 (A/Vietnam/1203/04, VN1203). Also on record: species or system mouse (balb/c). As to conditions: mouse, in vivo. This is another data set of the same source.
Assay [10] concerns the target T1, M2 protein of influenza A/Fort Worth/1/50 (H1N1), expressed on 293 cells (influenza A virus A/Fort Worth/1/50 …).
T1 chain: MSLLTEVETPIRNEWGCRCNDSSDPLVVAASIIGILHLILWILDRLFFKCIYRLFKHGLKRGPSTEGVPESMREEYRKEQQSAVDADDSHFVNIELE
The experiment in a line: cell staining images, 293-HEK cells stably expressing M2.

Assay [11] has as its target M2 protein of influenza A/Puerto Rico/8/34 (H1N1) on cells (influenza A virus A/Puerto Rico/8/34 …, UniProt P06821 1-97). The experiment in a line: FACS, MDCK cells infected with A/Puerto Rico/8/34.
In assay [12] the target is T2, M2 protein on influenza A/Puerto Rico/8/34 (H1N1) virus particles (influenza A virus A/Puerto Rico/8/34 …, UniProt P06821 1-97). The experiment in a line: ELISA on purified A/Puerto Rico/8/34 virus. For orientation: An ELISA detects its analyte on a solid surface through an enzyme-linked reagent.
Assay [13] concerns the target T2, M2 protein on influenza A/Puerto …. The assay can be described thus: ELISA on A/PR/8 virus, normalised to 8i10 at 10 µg/ml [D00002 FIG. 2B].
Assay [14] has as its target truncated M2 peptide SEQ ID NO 299. The experiment in a line: peptide ELISA, 5 µg/mL.
Assay [15] has as its target truncated M2 peptide SEQ ID NO 306. The experiment in a line: peptide ELISA, 5 µg/mL.
The target of assay [16] is truncated M2 peptide SEQ ID NO 314. The experiment in a line: peptide ELISA, 5 µg/mL.
Assay [17] deals with truncated M2 peptide SEQ ID NO 315. The assay can be described thus: peptide ELISA, 5 µg/mL.
Assay [18] concerns the target truncated M2 peptide SEQ ID NO 301. The assay can be described thus: peptide ELISA, 5 µg/mL.
Assay [19] deals with truncated M2 peptide SEQ ID NO 313. The assay can be described thus: peptide ELISA, 5 µg/mL.
In assay [20] the target is truncated M2 peptide SEQ ID NO 298. The assay can be described thus: peptide ELISA, 5 µg/mL.
For assay [21], the target named is truncated M2 peptide SEQ ID NO 304. The assay can be described thus: peptide ELISA, 5 µg/mL.
The target of assay [22] is truncated M2 peptide SEQ ID NO 300. The experiment in a line: peptide ELISA, 5 µg/mL.
In assay [23] the target is truncated M2 peptide SEQ ID NO 271. The experiment in a line: peptide ELISA, 5 µg/mL.
Another assay addresses M2 peptide SEQ ID NO 273. The assay can be described thus: peptide ELISA, 5 µg/mL.
The target in assay [24] is truncated M2 peptide SEQ ID NO 312. The assay can be described thus: peptide ELISA, 5 µg/mL.
The target of assay [25] is truncated M2 peptide SEQ ID NO 308. The assay can be described thus: peptide ELISA, 5 µg/mL.
The target of assay [26] is truncated M2 peptide SEQ ID NO 309. The assay can be described thus: peptide ELISA, 5 µg/mL.
Assay [27] addresses truncated M2 peptide SEQ ID NO 302. The experiment in a line: peptide ELISA, 5 µg/mL.
In assay [28] the target is truncated M2 peptide SEQ ID NO 310. The experiment in a line: peptide ELISA, 5 µg/mL.
The target in assay [29] is truncated M2 peptide SEQ ID NO 307. The assay can be described thus: peptide ELISA, 5 µg/mL.
Assay [30] concerns the target truncated M2 peptide SEQ ID NO 316. The experiment in a line: peptide ELISA, 5 µg/mL.
Assay [31] has as its target truncated M2 peptide SEQ ID NO 305. The assay can be described thus: peptide ELISA, 5 µg/mL.
For assay [32], the target named is truncated M2 peptide SEQ ID NO 303. The experiment in a line: peptide ELISA, 5 µg/mL.
Assay [33] has as its target truncated M2 peptide SEQ ID NO 311. The experiment in a line: peptide ELISA, 5 µg/mL.

Values joined by “and” are separate entries in the source; they are usually repeats but may differ in a detail not shown here. Identical values can stand only once. Like-named read-outs stand apart in the source and are kept apart here.

Take `CCOC(=O)C1=C[C@@H](OC(CC)CC)[C@H](NC(C)=O)[C@@H](N)C1` [Osel]: in the assay with H5N1 (VN1203/04) [1], the “Brain: pathological changes” value was “−/− and ++/++ and +/++”; the “Liver: pathological changes” value is given as “−/−”; the “Liver: viral antigens” value is “−/−”; the “Lung: pathological changes” value was “+/+ and +/++ and ++/++”. Besides, in the assay on H5N1 (VN1203/04) [2], the “Brain: viral antigens” value was “++/++ and +/++”; the “Lung: viral antigens” value was “+/++ and ++/++”. Besides, in the assay with H5N1 (VN1203/04) [3], the “Brain: viral antigens” value was “−/−” and the “Lung: viral antigens” value was “+/+”.
`CCOC(=O)C1=C[C@@H](OC(CC)CC)[C@H](NC(C)=O)[C@@H](N)C1` [oseltamivir]: the “protection from death (in words)” value in assay [4] was “completely protected mice”. Also, in assay [4], the “protection from weight loss (in words)” value is “completely protected mice”. Also, the “survival rate at day 15” value in assay [4] came out at 60%. Also, the “weight remaining (in words)” value in assay [4] was “retained more weight”. Besides, the “mice surviving until day 21” value in assay [5] is “about 10%”. Also, the “survival rate at day 14” value in the assay with H5N1 (VN1203/04) [6] is 90% and 50%; in assay [7] it was 20%; in [9], 20%. Besides, the “survival rate at day 21” value in the assay with H1N1 (A/NWS/33) (2MLD50) is on record as 90%; with H1N1 (A/NWS/33) (4MLD50), 100%; in the assay with H1N1 (A/PR/8/34), 80%. Moreover, in assay [8], the “survival (in words)” value is “extinction of the population prior to the end of the therapy”.

B1: 8I10 (antibody, V domains shown)
VH: QVQLQESGPGLVKPSETLSLTCTVSGSSISNYYWSWIRQSPGKGLEWIGFIYYGGNTKYNPSLKSRVTISQDTSKSQVSLTMSSVTAAESAVYFCARASCSGGYCILDYWGQGTLVTVS
VL: DIQMTQSPSSLSASVGDRVTITCRASQNIYKYLNWYQQRPGKAPKGLISAASGLQSGVPSRFSGSGSGTDFTLTITSLQPEDFATYYCQQSYSPPLTFGGGTRVEIK
Broadly, the EC50 (read off the curve) is the concentration giving half of the maximal effect. As a reminder, the EC50 is the concentration that produces a half-maximal response. Take B1: the binding result in assay [10] is “binds”. For the same molecule, the “EC50 (read off the curve)” value in assay [11] is approximately 0.1 µg/mL; in [13], approximately 0.04 µg/mL. Besides, the EC50 in [12] is approximately 0.1 µg/mL. Moreover, the ELISA A450 in [14] amounted to 0.09; in [15], 0.14; in assay [16], 0.1; in [17], 0.1; in [18], 0.11; in [19], 0.13. Also, the ELISA A450 in [20] was found to be 0.09; in assay [21] it was 0.14; in assay [22], 0.09; in [23], 0.12; with M2 peptide SEQ ID NO 273, 0.11; in assay [24], 0.1. In addition, the ELISA A450 in assay [25] is 0.29; in assay [26], 0.12; in assay [27] it was 0.13; in [28], 0.11; in assay [29], 0.26; in [30], 0.1. Further, the ELISA A450 in assay [31] stood at 0.14; in [32] it was 0.12; in assay [33], 0.11.

B2: 21B15 (antibody, V domains shown)
VH: QVQLQESGPGLVKPSETLSLTCTVSGSSISNYYWSWIRQSPGKGLEWIGFIYYGGNTKYNPSLKSRVTISQDTSKSQVSLTMSSVTAAESAVYFCARASCSGGYCILDYWGQGTLVTVS
VL: DIQVTQSPSSLSASVGDRVTITCRASQNIYKYLNWYQQRPGKAPKGLISAASGLQSGVPSRFSGSGSGTDFTLTITSLQPEDFATYYCQQSYSPPLTFGGGTRVDIK
On to B2, for which the binding result in [10] is on record as “binds”.

B3: 23K12 (antibody, V domains shown)
VH: EVQLVESGGGLVQPGGSLRISCAASGFTVSSNYMSWVRQAPGKGLEWVSVIYSGGSTYYADSVKGRFSFSRDNSKNTVFLQMNSLRAEDTAVYYCARCLSRMRGYGLDVWGQGTTVTVS
VL: DIQMTQSPSSLSASVGDRVTITCRTSQSISSYLNWYQQKPGKAPKLLIYAASSLQSGVPSRFSGSGSGTDFTLTISGLQPEDFATYYCQQSYSMPAFGQGTKLEIK
With B3, the binding result in assay [10] is on record as “binds”. The “EC50 (read off the curve)” value in [11] was approximately 0.2 µg/mL; in [13], approximately 0.06 µg/mL. Besides, the EC50 in [12] was approximately 0.1 µg/mL. The ELISA A450 in [15] stood at 0.39; in [16], 0.24; in [17], 0.2; in [18] it was 0.34; in assay [19], 0.3; in assay [21], 0.36. Further, the ELISA A450 was 0.2 in assay [22]; 0.3 in assay [23]; 0.24 in assay [24]; 0.35 in assay [27]; 0.24 in assay [28]; 0.2 in assay [30]. The ELISA A450 in assay [31] was 0.34; in assay [32], 0.34; in [33], 0.25.
